Measurements from the RNAGym collection of RNA variant scans (doi:10.7554/elife.80360).

B1: Twister Ribozyme (parent)
chain: AACACUGCCAAUGCCGGUCCCAAGCCCGGAUAAAAGUGGAGGGGGCGG

Variants of: B1
Test: self-cleavage, relative activity (ratio to wild type); higher = more cleavage; co-transcriptional

Variant	self-cleavage
AACACUGCCAAUGCCGGUCCCAAGCCCGGAUAAAAGAGGAUGGGGCGG	0.115
AACACUGCCAAUGCCGGUCCCAAGCCCGGAUAAAAGAGGACGGGGCGG	0.178
AACACUGCCAAUGCCGGUCCCAAGCCCGGAUAAAAGAGGAGGGGGUGG	0.886
AACACUGCCAAUGCCGGUCCCAAGCCCGGAUAAAAGAGGAGGGGGGGG	0.748
AACACUGCCAAUGCCGGUCCCAAGCCCGGAUAAAAGCGGAGGGGCCGG	0.26
AACACUGCCAAUGCCGGUCCCAAGCCCGGAUAAAAGCGGAGGGGACGG	0.691
AACACUGCCAAUGCCGGUCCCAAGCCCGGAUAAAAGCGGGGGGGGCGG	0.161
AACACUGCCAAUGCCGGUCCCAAGCCCGGAUAAAAGCGGUGGGGGCGG	0.0912
AACACUGCCAAUGCCGGUCCCAAGCCCGGAUAAAAGCGGCGGGGGCGG	0.0942
AACACUGCCAAUGCCGGUCCCAAGCCCGGAUAAAACUGGAGGGGUCGG	0.257
AACACUGCCAAUGCCGGUCCCAAGCCCGGAUAAAACUGGAGGGGCCGG	0.201
AACACUGCCAAUGCCGGUCCCAAGCCCGGAUAAAACUCGAGGGGGCGG	0.217
AACACUGCCAAUGCCGGUCCCAAGCCCGGAUAAAAGGCGAGGGGGCGG	0.208
AACACUGCCAAUGCCGGUCCCAAGCCCGGAUAAAAGGGGAUGGGGCGG	0.145
AACACUGCCAAUGCCGGUCCCAAGCCCGGAUAAAAGGGGAAGGGGCGG	0.209
AACACUGCCAAUGCCGGUCCCAAGCCCGGAUAAAAGGGGACGGGGCGG	0.113
AACACUGCCAAUGCCGGUCCCAAGCCCGGAUAAAAGCGUAGGGGGCGG	0.11
AACACUGCCAAUGCCGGUCCCAAGCCCGGAUAAAAGGGGAGGUGGCGG	0.173
AACACUGCCAAUGCCGGUCCCAAGCCCGGAUAAAAGGGGAGGAGGCGG	0.13
AACACUGCCAAUGCCGGUCCCAAGCCCGGAUAAAAUUGGAGGGGGCGU	0.454
AACACUGCCAAUGCCGGUCCCAAGCCCGGAUAAAAGUAGAGGGGGCGU	1.1
AACACUGCCAAUGCCGGUCCCAAGCCCGGAUAAAAUUGUAGGGGGCGG	0.147
AACACUGCCAAUGCCGGUCCCAAGCCCGGAUAAAAUUGCAGGGGGCGG	0.15
AACACUGCCAAUGCCGGUCCCAAGCCCGGAUAAAAUUGAAGGGGGCGG	0.172
AACACUGCCAAUGCCGGUCCCAAGCCCGGAUAAAAGAGGAGGGGGCGA	0.797
AACACUGCCAAUGCCGGUCCCAAGCCCGGAUAAAAGAGGAGGGGGCGC	0.865
AACACUGCCAAUGCCGGUCCCAAGCCCGGAUAAAAGCGGAGGGGGGGG	0.706

Variant	self-cleavage
AACACUGCCAAUGCCGGUCCCAAGCCCGGAUAAAAGCGGAGGGGGAGG	0.71
AACACUGCCAAUGCCGGUCCCAAGCCCGGAUAAAAGGGGAGGGGGUGG	0.76
AACACUGCCAAUGCCGGUCCCAAGCCCGGAUAAAAGGGGAGGGGGGGG	0.79
AACACUGCCAAUGCCGGUCCCAAGCCCGGAUAAAACUGGAGCGGGCGG	0.189
AACACUGCCAAUGCCGGUCCCAAGCCCGGAUAAAACUGGAGAGGGCGG	0.134
AACACUGCCAAUGCCGGUCCCAAGCCCGGAUAAAACUGGAGGGGGCAG	0.183
AACACUGCCAAUGCCGGUCCCAAGCCCGGAUAAAAGGGGAGGGUGCGG	0.805
AACACUGCCAAUGCCGGUCCCAAGCCCGGAUAAAAGGGGAGGGGGCGU	0.856
AACACUGCCAAUGCCGGUCCCAAGCCCGGAUAAAAGCAGAGGGGGCGG	0.166
AACACUGCCAAUGCCGGUCCCAAGCCCGGAUAAAAGCGGAGGGGGCGA	0.639
AACACUGCCAAUGCCGGUCCCAAGCCCGGAUAAAAUUGGAGGGGUCGG	0.315
AACACUGCCAAUGCCGGUCCCAAGCCCGGAUAAAAUUGGAGGGGCCGG	0.199
AACACUGCCAAUGCCGGUCCCAAGCCCGGAUAAAAGUAGGGGGGGCGG	0.131
AACACUGCCAAUGCCGGUCCCAAGCCCGGAUAAAAGUAGUGGGGGCGG	0.118
AACACUGCCAAUGCCGGUCCCAAGCCCGGAUAAAACUGGAGGGGGCGU	0.455
AACACUGCCAAUGCCGGUCCCAAGCCCGGAUAAAAGUAGAGGGGGAGG	0.875
AACACUGCCAAUGCCGGUCCCAAGCCCGGAUAAAAGUAGAGGGGGGGG	0.966
AACACUGCCAAUGCCGGUCCCAAGCCCGGAUAAAAUUAGAGGGGGCGG	0.452
AACACUGCCAAUGCCGGUCCCAAGCCCGGAUAAAAUUUGAGGGGGCGG	0.167
AACACUGCCAAUGCCGGUCCCAAGCCCGGAUAAAAUUGGAGGCGGCGG	0.124
AACACUGCCAAUGCCGGUCCCAAGCCCGGAUAAAAUUGGAGGAGGCGG	0.102
AACACUGCCAAUGCCGGUCCCAAGCCCGGAUAAAAGUAGAUGGGGCGG	0.315
AACACUGCCAAUGCCGGUCCCAAGCCCGGAUAAAAGUAGACGGGGCGG	0.157
AACACUGCCAAUGCCGGUCCCAAGCCCGGAUAAAAGGGGAGAGGGCGG	0.171
AACACUGCCAAUGCCGGUCCCAAGCCCGGAUAAAAGGGGAGUGGGCGG	0.163
AACACUGCCAAUGCCGGUCCCAAGCCCGGAUAAAAGGGGAGCGGGCGG	0.103
AACACUGCCAAUGCCGGUCCCAAGCCCGGAUAAAAUGGGAGGGGGCGG	0.37
